The labels stand for the following.
B1: His-tagged cynomolgus monkey TfR ectodomain (cyTFRC_89_760; mature protein) (receptor)
chain: CKGVEPKTECERLAGTESPAREEPEEDFPAAPRLYWDDLKRKLSEKLDTTDFTSTIKLLNENLYVPREAGSQKDENLALYIENQFREFKLSKVWRDQHFVKIQVKDSAQNSVIIVDKNGGLVYLVENPGGYVAYSKAATVTGKLVHANFGTKKDFEDLDSPVNGSIVIVRAGKITFAEKVANAESLNAIGVLIYMDQTKFPIVKADLSFFGHAHLGTGDPYTPGFPSFNHTQFPPSQSSGLPNIPVQTISRAAAEKLFGNMEGDCPSDWKTDSTCKMVTSENKSVKLTVSNVLKETKILNIFGVIKGFVEPDHYVVVGAQRDAWGPGAAKSSVGTALLLKLAQMFSDMVLKDGFQPSRSIIFASWSAGDFGSVGATEWLEGYLSSLHLKAFTYINLDKAVLGTSNFKVSASPLLYTLIEKTMQDVKHPVTGRSLYQDSNWASKVEKLTLDNAAFPFLAYSGIPAVSFCFCEDTDYPYLGTTMDTYKELVERIPELNKVARAAAEVAGQFVIKLTHDTELNLDYERYNSQLLLFLRDLNQYRADVKEMGLSLQWLYSARGDFFRATSRLTTDFRNAEKRDKFVMKKLNDRVMRVEYYFLSPYVSPKESPFRHVFWGSGSHTLSALLESLKLRRQNNSAFNETLFRNQLALATWTIQGAANALSGDVWDIDNEF
notes: also called cTfR; cTfR ectodomain
B2: cTfR expressed on 300.19 cells (SEQ ID NO: 2) (receptor)
chain: MMDQARSAFSNLFGGEPLSYTRFSLARQVDGDNSHVEMKLGVDEEENTDNNTKANGTKPKRCGGNICYGTIAVIIFFLIGFMIGYLGYCKGVEPKTECERLAGTESPAREEPEEDFPAAPRLYWDDLKRKLSEKLDTTDFTSTIKLLNENLYVPREAGSQKDENLALYIENQFREFKLSKVWRDQHFVKIQVKDSAQNSVIIVDKNGGLVYLVENPGGYVAYSKAATVTGKLVHANFGTKKDFEDLDSPVNGSIVIVRAGKITFAEKVANAESLNAIGVLIYMDQTKFPIVKADLSFFGHAHLGTGDPYTPGFPSFNHTQFPPSQSSGLPNIPVQTISRAAAEKLFGNMEGDCPSDWKTDSTCKMVTSENKSVKLTVSNVLKETKILNIFGVIKGFVEPDHYVVVGAQRDAWGPGAAKSSVGTALLLKLAQMFSDMVLKDGFQPSRSIIFASWSAGDFGSVGATEWLEGYLSSLHLKAFTYINLDKAVLGTSNFKVSASPLLYTLIEKTMQDVKHPVTGRSLYQDSNWASKVEKLTLDNAAFPFLAYSGIPAVSFCFCEDTDYPYLGTTMDTYKELVERIPELNKVARAAAEVAGQFVIKLTHDTELNLDYERYNSQLLLFLRDLNQYRADVKEMGLSLQWLYSARGDFFRATSRLTTDFRNAEKRDKFVMKKLNDRVMRVEYYFLSPYVSPKESPFRHVFWGSGSHTLSALLESLKLRRQNNSAFNETLFRNQLALATWTIQGAANALSGDVWDIDNEF
notes: Murine pre-B cell line 300.19, stably transfected with a plasmid expressing cTfR; also called cynomolgus TfR; cTfR-expressing 300.19 cells
B3: 531v25 Fab (Fab, V domains shown)
VH: QVQLVQSGAEVKKPGASVKVSCKASGYTFTRYYLNWVRQAPGQGLEWIGMIDPSVSETHYAQKFQGRATLTVDKSTSTAYMELSSLRSEDTAVYYCSQIRLPYYYAMDSWGQGTTVTVSS
VL: DIQMTQSPSSLSASVGDRVTITCRASQDISSFLNWYQQKPGKAPKLLIYYTSRLQSGVPSRFSGSGSGTDYTLTISSLQPEDFATYYCQQGNTLPRTFGGGTKVEIKR
notes: The His-tag was removed with TEV protease before SPR

The target of assay [1] is T1, anti-TfR 531v25-Fab-FcOL-GAA.
T1 construct: Monovalent Fab-FcOL with GAA fused to the C-terminus of the Fc polypeptide
T1 sequence (chain, as listed by the source): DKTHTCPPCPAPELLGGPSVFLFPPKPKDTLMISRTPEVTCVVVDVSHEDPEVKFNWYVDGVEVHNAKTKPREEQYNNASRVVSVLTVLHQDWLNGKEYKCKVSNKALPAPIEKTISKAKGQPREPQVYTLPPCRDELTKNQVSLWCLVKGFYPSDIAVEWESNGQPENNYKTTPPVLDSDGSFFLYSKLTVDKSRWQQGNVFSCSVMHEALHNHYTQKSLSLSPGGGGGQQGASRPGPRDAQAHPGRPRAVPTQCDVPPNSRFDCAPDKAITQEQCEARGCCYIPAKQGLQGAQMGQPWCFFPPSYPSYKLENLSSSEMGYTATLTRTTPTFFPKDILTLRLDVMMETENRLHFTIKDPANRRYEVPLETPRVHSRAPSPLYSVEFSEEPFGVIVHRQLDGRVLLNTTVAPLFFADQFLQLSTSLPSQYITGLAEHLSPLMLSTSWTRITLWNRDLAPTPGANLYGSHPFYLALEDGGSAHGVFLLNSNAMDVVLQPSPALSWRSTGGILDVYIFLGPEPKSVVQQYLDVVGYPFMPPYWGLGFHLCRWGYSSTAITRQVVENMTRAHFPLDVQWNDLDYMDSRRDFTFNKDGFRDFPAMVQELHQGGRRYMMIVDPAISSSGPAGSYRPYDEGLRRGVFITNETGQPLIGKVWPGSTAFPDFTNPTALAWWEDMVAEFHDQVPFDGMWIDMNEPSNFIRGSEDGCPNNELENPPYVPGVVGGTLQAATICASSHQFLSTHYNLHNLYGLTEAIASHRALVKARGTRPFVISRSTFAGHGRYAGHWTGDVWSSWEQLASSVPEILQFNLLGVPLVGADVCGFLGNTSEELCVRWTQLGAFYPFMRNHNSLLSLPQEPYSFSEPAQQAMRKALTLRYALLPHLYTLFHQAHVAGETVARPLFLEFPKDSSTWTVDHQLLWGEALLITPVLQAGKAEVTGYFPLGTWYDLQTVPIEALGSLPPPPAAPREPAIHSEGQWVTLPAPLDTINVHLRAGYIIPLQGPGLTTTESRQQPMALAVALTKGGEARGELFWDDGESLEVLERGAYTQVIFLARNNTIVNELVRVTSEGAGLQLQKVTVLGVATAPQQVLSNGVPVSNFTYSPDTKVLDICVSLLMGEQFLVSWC
Kind of assay: SPR, His-tagged TfR ectodomain captured on anti-His, 1:1 fit. As for the experimental part: (§1) Binding of the humanized Fab variants to human, cynomolgus and mouse TfR was assessed using SPR at pH 7.4. Experiments were run on a Bruker MASS-2 instrument with HBS-EP+ as running buffer and sample diluent (Cytiva Life Sciences, #BR100826). HCA sensor chips (Bruker, #1862614) were immobilized with anti-His antibody (His capture kit, Cytiva Life Sciences, #28995056) following manufacturer's instructions. About 10,000 RU of anti-His was obtained. His-tagged hTfR ectodomain (SEQ ID NO: 39), cTfR ectodomain (SEQ ID NO: 40) or mouse TfR ectodomain (SEQ ID NO: 41) (5 μg/ml) was captured for 1 min at 10 μL/min. Concentration series of the humanized Fab variants were then injected for 4 min at 30 μL/min over hTfR surfaces and dissociation was monitored for 5 min. Surface was regenerated with one 1 min pulse of 10 mM glycine-HCl at pH 1.5.
(§2) Affinity by SPR was also measured for the 531v25-mAb-GAAx2 molecule (a GAA sequence fused to both HCs).

In assay [2] the target is T2, anti-TfR 531v25-Fab-FcOL-LC-GAA (Homo sapiens (Human), UniProt P0DOX5 223-448 = IgG part).
T2 construct: Monovalent Fab-FcOL with GAA fused to the C-terminus of the light chain
The description is as above. As for the experimental part:
as §1, §2

For assay [3], the target named is T1, anti-TfR 531v25-Fab-FcOL-GAA. Put plainly: flow cytometry on TfR-expressing 300.19 cells. (In general: In flow cytometry, cells or beads pass a laser one at a time.)
For assay [4], the target named is T2, anti-TfR 531v25-Fab-FcOL-LC-GAA. Kind of assay: flow cytometry on TfR-expressing 300.19 cells.
The target of assay [5] is B1. Put plainly: SPR; KD on cTfR against KD on hTfR. The method, then:
as §1
A general note: SPR reads the build-up and loss of mass on a sensor chip optically.

In assay [6] the target is B1. Put plainly: SPR; KD on cTfR against KD on hTfR. The method, then: as §1
The target of assay [7] is His-tagged mouse TfR ectodomain (mTFRC_89_764; mature protein) (mouse, UniProt Q62351 89-763). Kind of assay: SPR, His-tagged mTfR ectodomain captured on anti-His. As for the experimental part:
as §1

Assay [8] concerns the target T3, His-tagged human TfR ectodomain (hTFRC_89-760_G142S; mature protein) (human, UniProt P02786 89-760).
T3 construct: It carries the G142S haplotype; also called hTfR ectodomain
Put plainly: SPR, His-tagged TfR ectodomain captured on anti-His, 1:1 fit. As for the experimental part:
as §1
Target sequence in this assay (P02786 89-760 G142S): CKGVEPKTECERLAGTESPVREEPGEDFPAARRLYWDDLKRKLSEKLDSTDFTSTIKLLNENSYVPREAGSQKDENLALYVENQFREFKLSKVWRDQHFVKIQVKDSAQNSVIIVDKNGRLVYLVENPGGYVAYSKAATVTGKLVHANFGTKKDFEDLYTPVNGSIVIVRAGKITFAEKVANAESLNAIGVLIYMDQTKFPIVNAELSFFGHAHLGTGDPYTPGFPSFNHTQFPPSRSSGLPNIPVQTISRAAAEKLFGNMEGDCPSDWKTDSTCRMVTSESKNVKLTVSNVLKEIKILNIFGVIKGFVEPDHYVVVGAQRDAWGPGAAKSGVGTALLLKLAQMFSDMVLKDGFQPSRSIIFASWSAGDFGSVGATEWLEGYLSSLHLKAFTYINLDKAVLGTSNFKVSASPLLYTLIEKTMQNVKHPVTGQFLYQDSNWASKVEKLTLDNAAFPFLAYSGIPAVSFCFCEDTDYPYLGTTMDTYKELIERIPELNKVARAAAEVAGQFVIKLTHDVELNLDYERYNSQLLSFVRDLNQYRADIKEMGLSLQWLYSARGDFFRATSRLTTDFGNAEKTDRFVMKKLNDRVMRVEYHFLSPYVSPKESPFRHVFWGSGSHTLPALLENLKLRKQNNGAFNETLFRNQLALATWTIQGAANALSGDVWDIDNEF

The target in assay [9] is B1. The assay is described as above. The method, then: as §1
For assay [10], the target named is T3, His-tagged human TfR ectodomain …. Described as above. As for the experimental part: as §1
The source holds these as a separate data set.

Assay [11] deals with B1. The description is as above. The method, then: as §1

What is called Kd is a measure of binding affinity in units of concentration.

Where two headings read alike, the source gives them in different places.

His-tagged mouse TfR ectodomain (mTFRC_89_764; mature protein), sequence (Q62351 other isoform, or with tags, fused parts or gaps): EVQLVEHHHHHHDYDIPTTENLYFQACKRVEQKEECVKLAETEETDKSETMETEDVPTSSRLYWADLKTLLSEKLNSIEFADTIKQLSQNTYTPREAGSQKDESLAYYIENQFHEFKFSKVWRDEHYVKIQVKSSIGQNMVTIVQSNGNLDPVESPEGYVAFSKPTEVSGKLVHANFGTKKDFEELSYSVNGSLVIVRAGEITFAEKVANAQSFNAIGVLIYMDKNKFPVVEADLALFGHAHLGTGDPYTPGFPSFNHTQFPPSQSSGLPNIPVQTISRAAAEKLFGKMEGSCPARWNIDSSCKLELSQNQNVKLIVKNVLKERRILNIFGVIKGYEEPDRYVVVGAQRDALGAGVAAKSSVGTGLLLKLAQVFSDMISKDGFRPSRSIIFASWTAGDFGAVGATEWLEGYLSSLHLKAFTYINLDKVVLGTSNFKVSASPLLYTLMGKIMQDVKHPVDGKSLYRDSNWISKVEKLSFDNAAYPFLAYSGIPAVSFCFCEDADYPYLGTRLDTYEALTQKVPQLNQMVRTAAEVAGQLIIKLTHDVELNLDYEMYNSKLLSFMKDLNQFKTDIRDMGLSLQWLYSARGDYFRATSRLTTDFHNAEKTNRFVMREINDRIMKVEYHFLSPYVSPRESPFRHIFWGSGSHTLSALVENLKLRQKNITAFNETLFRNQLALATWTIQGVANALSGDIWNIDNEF

As for B1, the values for the Kd in assay [1] and in [2] were 0.089 µM and 0.154 µM, respectively.
As to B2, the binding result in assay [3] and in assay [4] was “binds” in each case.
With B3, the figures for the “Cynomolgus/human KD ratio” value in assay [5] and in [6] were 12.5 and 12.4, respectively. The binding result in [7] is listed as “no binding”. Moreover, the Kd was 0.00445 µM in assay [8], 0.0558 µM in assay [9], 0.0045 µM in assay [10] and 0.0558 µM in assay [11].

Values taken from patent publication US20240226314A1 (Sanofi, published 2024).
